Experiments:
Settings in all cases: both partners purified
[1] = biological target: T1, linear tetra-ubiquitin (Ub4), M1-linked (UniProt P0CG48 1-76; P0CG48 1-76; P0CG48 1-76; P0CG48 1-76); assay: SEC; Superose6 Increase 10/300 GL; 25 mM Tris–HCl pH 8.0, 250 mM NaCl, 2 mM DTT, 5% glycerol; 0.2 ml/min, 22 °C; peak fractions on Coomassie-stained SDS-PAGE
T1 construct: ubiquitin, copy 1 of four moieties covalently linked N-terminal to C-terminal on one chain (M1 linked); ubiquitin, copy 2 of four; ubiquitin, copy 3 of four; ubiquitin, copy 4 of four; also called linear poly-Ub; methionine-linked Ub4 chain; source: recombinant (pET24d construct), purified; not shown: His6, N-terminal, kept

[2] = biological target: T1, linear tetra-ubiquitin (Ub4), M1-linked; assay: pull-down; Ub4 recovered with GST-NEMO^241–419 from mixtures with HA-IKK2 HEK293T lysate, with or without TAT peptides (200–25 μM), 2 h at 4 °C; Western blot
[3] = biological target: T1, linear tetra-ubiquitin (Ub4), M1-linked; assay: pull-down; purified GST-NEMO fusions mixed with purified IKK proteins in the presence of Ub4, 1 h at 4 °C, then glutathione–agarose beads 2 h at 4 °C; 25 mM Tris–HCl pH 7.5, 150 mM NaCl, 1 mM EDTA, 0.5% NP-40, 0.55% Triton X-100, 5% glycerol, 1 mM DTT; four washes; Western blot

T1 sequence (P0CG48 1-304, one chain of several): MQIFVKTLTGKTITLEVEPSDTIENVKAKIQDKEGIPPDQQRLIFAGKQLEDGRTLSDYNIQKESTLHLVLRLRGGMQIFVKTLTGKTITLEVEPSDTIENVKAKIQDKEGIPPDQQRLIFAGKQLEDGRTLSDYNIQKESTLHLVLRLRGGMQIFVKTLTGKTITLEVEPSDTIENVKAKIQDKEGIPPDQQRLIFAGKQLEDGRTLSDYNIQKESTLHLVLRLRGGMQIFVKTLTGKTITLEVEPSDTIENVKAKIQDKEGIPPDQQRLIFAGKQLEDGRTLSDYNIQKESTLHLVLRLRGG

B1: GST-NEMO^241–390 (domain or fragment, human, UniProt Q9Y6K9 241-390, looked up)
chain: YDNHIKSSVVGSERKRGMQLEDLKQQLQQAEEALVAKQEVIDKLKEEAEQHKIVMETVPVLKAQADIYKADFQAERQAREKLAEKKELLQEQLEQLQREYSKLKASCQESARIEDMRKRHVEVSQAPLPPAPAYLSSPLALPSQRRSPPE
notes: source: E. coli Rosetta (DE3), purified (glutathione–agarose); not shown: GST, N-terminal, kept
B1: binds [1].

B2: GST-NEMO^241–375 (domain or fragment, human, UniProt Q9Y6K9 241-375, looked up)
chain: YDNHIKSSVVGSERKRGMQLEDLKQQLQQAEEALVAKQEVIDKLKEEAEQHKIVMETVPVLKAQADIYKADFQAERQAREKLAEKKELLQEQLEQLQREYSKLKASCQESARIEDMRKRHVEVSQAPLPPAPAYL
notes: as for B1
B2: binds [1].

B3: GST-NEMO^241–419 (domain or fragment, human, UniProt Q9Y6K9 241-419, looked up)
chain: YDNHIKSSVVGSERKRGMQLEDLKQQLQQAEEALVAKQEVIDKLKEEAEQHKIVMETVPVLKAQADIYKADFQAERQAREKLAEKKELLQEQLEQLQREYSKLKASCQESARIEDMRKRHVEVSQAPLPPAPAYLSSPLALPSQRRSPPEEPPDFCCPKCQYQAPDMDTLQIHVMECIE
notes: also called CC2-ZF; source: E. coli Rosetta (DE3), purified (glutathione–agarose); not shown: GST, N-terminal, kept
B3: binds [2].

B4: GST-NEMO^241–350 (domain or fragment, human, UniProt Q9Y6K9 241-350, looked up)
chain: YDNHIKSSVVGSERKRGMQLEDLKQQLQQAEEALVAKQEVIDKLKEEAEQHKIVMETVPVLKAQADIYKADFQAERQAREKLAEKKELLQEQLEQLQREYSKLKASCQES
notes: as for B1
B4: binds [1].

B5: GST-NEMO^111–419 (domain or fragment, human, UniProt Q9Y6K9 111-419, looked up)
chain: KLDLKRQKEQALREVEHLKRCQQQMAEDKASVKAQVTSLLGELQESQSRLEAATKECQALEGRARAASEQARQLESEREALQQQHSVQVDQLRMQGQSVEAALRMERQAASEEKRKLAQLQVAYHQLFQEYDNHIKSSVVGSERKRGMQLEDLKQQLQQAEEALVAKQEVIDKLKEEAEQHKIVMETVPVLKAQADIYKADFQAERQAREKLAEKKELLQEQLEQLQREYSKLKASCQESARIEDMRKRHVEVSQAPLPPAPAYLSSPLALPSQRRSPPEEPPDFCCPKCQYQAPDMDTLQIHVMECIE
notes: also called truncated NEMO (lacking the KBD); source: E. coli Rosetta (DE3), purified (glutathione–agarose); not shown: GST, N-terminal, kept
B5: binds [3].

B6: GST-NEMO^241–383 (domain or fragment, human, UniProt Q9Y6K9 241-383, looked up)
chain: YDNHIKSSVVGSERKRGMQLEDLKQQLQQAEEALVAKQEVIDKLKEEAEQHKIVMETVPVLKAQADIYKADFQAERQAREKLAEKKELLQEQLEQLQREYSKLKASCQESARIEDMRKRHVEVSQAPLPPAPAYLSSPLALPS
notes: as for B1
B6: binds [1].
